In the RNAGym collection of RNA variant scans (doi:10.7554/elife.80360):

B1: HDV Ribozyme (parent)
chain: GGCCGGCAUGGUCCCAGCCUCCUCGCUGGCGCCGGCUGGGCAACAUUCCGAGGGGACCGUCCCCUCGGUAAUGGCGAAUGGGACCCA

Variants of: B1
Assay: self-cleavage, relative activity (ratio to wild type); higher = more cleavage; co-transcriptional
For C57U C58G, the self-cleavage was 0.762.
C58G U72C showed a self-cleavage of 0.369.
C58G U72G showed a self-cleavage of 0.447.
In the case of G59U A78G, the self-cleavage is reported as 0.904.
For C58G C86G, the self-cleavage was 0.969.
Work on C57U C85G yielded a self-cleavage of 0.984.
Work on U60G A71G yielded a self-cleavage of 0.831.
Variant U60G U79C has a self-cleavage of 0.203.
Work on G59C U69C yielded a self-cleavage of 1.23.
G59U G80C showed a self-cleavage of 0.141.
For C58A G68C, the self-cleavage was 1.03.
For U60G U72C, the self-cleavage was 0.489.
With G59C C85U the self-cleavage was 1.14.
G59A C66A gave a self-cleavage of 0.867.
With C61A C84G the self-cleavage was 0.795.
For C57G G74C, the self-cleavage was 0.446.
C58A C63A gave a self-cleavage of 1.04.
C58A C63G showed a self-cleavage of 0.932.
Variant C57G G80C has a self-cleavage of 0.125.
Work on U60C C86G yielded a self-cleavage of 0.982.
C58G G73C showed a self-cleavage of 0.582.
For U60G G67A, the self-cleavage was 0.91.
Work on U60G G67C yielded a self-cleavage of 0.98.
Work on C57G C61U yielded a self-cleavage of 0.967.
C61A G82A showed a self-cleavage of 0.46.
Work on C57U A70C yielded a self-cleavage of 0.855.
In the case of U60A A83C, the self-cleavage is reported as 0.554.
In the case of U60A A83U, the self-cleavage is reported as 0.356.
U60A A83G gave a self-cleavage of 1.04.
In the case of A56U A87G, the self-cleavage is reported as 1.02.
U60A C84G gave a self-cleavage of 0.475.
For C57A C75G, the self-cleavage was 0.0978.
For A56U A77C, the self-cleavage was 0.341.
C57G A78G showed a self-cleavage of 0.629.
C57U U60A gave a self-cleavage of 1.07.
In the case of A56U C75U, the self-cleavage is reported as 0.237.
G59C G74U gave a self-cleavage of 0.531.
G59A U65A gave a self-cleavage of 0.933.
In the case of A56G G82C, the self-cleavage is reported as 0.193.
For U60A A87U, the self-cleavage was 0.985.
Work on G59C G68U yielded a self-cleavage of 1.07.
For U60G G82A, the self-cleavage was 0.6.
With C57A A83C the self-cleavage was 0.684.
Variant C57G A77C has a self-cleavage of 0.237.
Variant G59A G67U has a self-cleavage of 0.918.
Work on C57U A78C yielded a self-cleavage of 0.312.
In the case of A56U G80C, the self-cleavage is reported as 0.22.
Work on A56U G80U yielded a self-cleavage of 0.237.
For A56U G80A, the self-cleavage was 0.358.
In the case of C58U A87G, the self-cleavage is reported as 0.876.
C57A C61A showed a self-cleavage of 1.05.
For C58G U60C, the self-cleavage was 1.2.
For C61G G67A, the self-cleavage was 0.743.
C61G C86G gave a self-cleavage of 0.941.
In the case of C61G C86U, the self-cleavage is reported as 0.772.
In the case of A56U G74C, the self-cleavage is reported as 0.317.
C58A U65A showed a self-cleavage of 0.9.
For U60G A78G, the self-cleavage was 0.72.
With U60G A78C the self-cleavage was 0.151.
U60G A78U gave a self-cleavage of 0.178.
With A56U C66U the self-cleavage was 0.923.
Variant C61A A70C has a self-cleavage of 1.01.
Variant C61A A70U has a self-cleavage of 1.17.
Variant C61G C64U has a self-cleavage of 0.755.
In the case of C58U U65G, the self-cleavage is reported as 0.964.
Work on C58U U65C yielded a self-cleavage of 1.03.
Work on C58G A87U yielded a self-cleavage of 0.897.
G59A G74A gave a self-cleavage of 0.431.
With C58G C62A the self-cleavage was 0.796.
Variant C58G A78C has a self-cleavage of 0.102.
Variant C57U G80U has a self-cleavage of 0.147.
C61A A78U showed a self-cleavage of 0.131.
U60C G73A gave a self-cleavage of 0.815.
Work on C57A A77C yielded a self-cleavage of 0.314.
With C57A A77U the self-cleavage was 0.486.
C58U G67C gave a self-cleavage of 1.07.
Work on G59A G68A yielded a self-cleavage of 0.968.
For U60G C62U, the self-cleavage was 1.05.
C58A C66U gave a self-cleavage of 0.917.
With U60G A70U the self-cleavage was 0.969.
G59C G80A gave a self-cleavage of 0.409.
G59A A70C showed a self-cleavage of 0.982.
G59U C66A gave a self-cleavage of 0.904.
For G59U G67U, the self-cleavage was 1.17.
For C57U G76U, the self-cleavage was 0.906.
C57U G76A gave a self-cleavage of 1.1.
With C57U G76C the self-cleavage was 0.902.
Work on C57A U60C yielded a self-cleavage of 1.01.
In the case of C57A U60A, the self-cleavage is reported as 0.898.
G59C G67C gave a self-cleavage of 0.929.
For C58G U79C, the self-cleavage was 0.366.
C57A C66U gave a self-cleavage of 1.18.
In the case of C61A A83G, the self-cleavage is reported as 0.997.
Variant U60G A87U has a self-cleavage of 0.906.
Work on C58G G80C yielded a self-cleavage of 0.147.
Variant C58G G80A has a self-cleavage of 0.332.
U60C G80U showed a self-cleavage of 0.157.
Variant C57G C63A has a self-cleavage of 0.956.
A56U U69C showed a self-cleavage of 0.733.
A56G G74U gave a self-cleavage of 0.564.
Work on C57U C84G yielded a self-cleavage of 0.673.
Variant C58A G82C has a self-cleavage of 0.17.
In the case of C58A G82U, the self-cleavage is reported as 0.376.
Variant U60G C66G has a self-cleavage of 1.05.
C57U G74U gave a self-cleavage of 0.548.
Variant C61A U69A has a self-cleavage of 1.09.
C61A U69G gave a self-cleavage of 1.03.
Work on C58G A70G yielded a self-cleavage of 1.03.
In the case of C58G A70U, the self-cleavage is reported as 0.929.
Variant C58G A77G has a self-cleavage of 0.831.
With C58A U79G the self-cleavage was 0.772.
Work on C57A U79A yielded a self-cleavage of 0.806.
For G59C A77G, the self-cleavage was 1.13.
Variant G59C A77U has a self-cleavage of 0.534.
A56G G68U showed a self-cleavage of 1.18.
Work on C61A G76U yielded a self-cleavage of 1.05.
In the case of G59U C84A, the self-cleavage is reported as 0.863.
In the case of C61G C63G, the self-cleavage is reported as 0.481.
With A56U C84A the self-cleavage was 0.895.
For A56U C84G, the self-cleavage was 0.697.
Variant U60A G74U has a self-cleavage of 0.521.
Work on U60A G74C yielded a self-cleavage of 0.225.
In the case of C58U G68A, the self-cleavage is reported as 0.855.
In the case of G59A U79G, the self-cleavage is reported as 0.906.
Variant U60G C63A has a self-cleavage of 0.831.
With C57U A71G the self-cleavage was 1.12.
Work on U60C A71C yielded a self-cleavage of 1.27.
Work on U60A C62G yielded a self-cleavage of 0.997.
G59C C84G gave a self-cleavage of 0.831.
Variant C57A G68C has a self-cleavage of 1.06.
C61G C84A gave a self-cleavage of 0.708.
Work on C58A C62A yielded a self-cleavage of 1.26.
C57U A83C gave a self-cleavage of 0.665.
For U60C C64U, the self-cleavage was 0.895.
For U60A G68C, the self-cleavage was 0.791.
For U60C C75U, the self-cleavage was 0.203.
In the case of U60G G68U, the self-cleavage is reported as 0.762.
With C58U C84G the self-cleavage was 0.665.
Work on G59A U72A yielded a self-cleavage of 0.698.
G59A U72G showed a self-cleavage of 0.637.
G59U A77G showed a self-cleavage of 0.847.
Work on G59A C86A yielded a self-cleavage of 0.842.
For U60G G80U, the self-cleavage was 0.277.
With C57U C86A the self-cleavage was 0.882.
C61A G68C showed a self-cleavage of 0.873.
With A56U U72A the self-cleavage was 0.764.
In the case of C58G G68U, the self-cleavage is reported as 0.959.
A56U C61A gave a self-cleavage of 0.943.
With A56U C61G the self-cleavage was 0.997.
In the case of C57U A77G, the self-cleavage is reported as 0.941.
In the case of C57U A77U, the self-cleavage is reported as 0.648.
For U60C C84U, the self-cleavage was 0.918.
U60C C84A showed a self-cleavage of 0.698.
With G59U C75G the self-cleavage was 0.123.
For U60C A83G, the self-cleavage was 0.707.
In the case of G59A C64A, the self-cleavage is reported as 0.862.
In the case of G59C A83C, the self-cleavage is reported as 0.514.
In the case of G59C A83U, the self-cleavage is reported as 0.469.
Work on A56U A71G yielded a self-cleavage of 0.762.
Variant A56U A71U has a self-cleavage of 0.864.
C57G U65G showed a self-cleavage of 0.85.
Work on U60A U69C yielded a self-cleavage of 1.08.
For U60C G81A, the self-cleavage was 0.604.
C61G U65A gave a self-cleavage of 0.639.
For C58U U60A, the self-cleavage was 0.845.
Work on C58U U60C yielded a self-cleavage of 1.19.
Variant A56U A83G has a self-cleavage of 0.876.
